From patent US20260209291A1

Experiments:
Test in all cases: cell-based or functional assay
[1] = target: T1, myostatin (Homo sapiens (Human)) (UniProt O14793)
T1 sequence: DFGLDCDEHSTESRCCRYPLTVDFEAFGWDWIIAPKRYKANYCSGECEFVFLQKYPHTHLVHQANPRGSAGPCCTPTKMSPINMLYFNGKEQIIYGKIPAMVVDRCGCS

activin A (human) = target: T2, activin A (human) (UniProt P08476)
T2 sequence: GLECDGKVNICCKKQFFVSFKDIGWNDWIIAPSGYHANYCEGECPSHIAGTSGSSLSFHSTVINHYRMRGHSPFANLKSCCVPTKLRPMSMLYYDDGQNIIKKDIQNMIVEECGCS

[2] = target: T3, GDF11 (Growth Differentiation Factor 11) (Homo sapiens (Human)) (UniProt O95390)
T3 sequence: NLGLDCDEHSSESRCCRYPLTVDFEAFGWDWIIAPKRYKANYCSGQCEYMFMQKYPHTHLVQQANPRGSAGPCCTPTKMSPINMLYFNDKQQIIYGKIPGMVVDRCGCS

Sequence of VGFR(½)-hFc (Aflibercept) (Fc fusion) (chain): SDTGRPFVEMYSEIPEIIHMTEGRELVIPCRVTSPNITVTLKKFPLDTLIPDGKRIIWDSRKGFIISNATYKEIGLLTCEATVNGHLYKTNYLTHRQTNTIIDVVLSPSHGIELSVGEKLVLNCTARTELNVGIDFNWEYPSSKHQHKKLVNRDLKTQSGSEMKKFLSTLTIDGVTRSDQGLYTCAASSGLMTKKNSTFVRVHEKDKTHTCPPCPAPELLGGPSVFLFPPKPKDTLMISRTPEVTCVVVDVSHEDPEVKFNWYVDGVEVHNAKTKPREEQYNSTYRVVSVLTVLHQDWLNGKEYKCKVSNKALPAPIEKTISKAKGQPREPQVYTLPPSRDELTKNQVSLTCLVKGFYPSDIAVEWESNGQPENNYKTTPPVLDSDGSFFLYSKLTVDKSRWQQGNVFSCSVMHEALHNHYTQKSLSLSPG

## FSD1 (E126A) (single entity produced in E. coli) (from UniProt P19883 93-165)
[1]
  neutralization of myostatin signaling (pSmad2/3 luciferase reporter bioassay, HEK293): > 822 nM
Activin A (human)
  neutralization of activin A signaling (pSmad2/3 luciferase reporter bioassay, HEK293): > 822 nM

## FSD1 (Q124A) (single entity produced in E. coli) (from UniProt P19883 93-165)
[1]
  neutralization of myostatin signaling (pSmad2/3 luciferase reporter bioassay, HEK293): > 822 nM
Activin A (human)
  neutralization of activin A signaling (pSmad2/3 luciferase reporter bioassay, HEK293): > 822 nM

## FSD1 (Q124A, E126A) (single entity produced in E. coli) (from UniProt P19883 93-165)
[1]
  neutralization of myostatin signaling (pSmad2/3 luciferase reporter bioassay, HEK293): > 822 nM
Activin A (human)
  neutralization of activin A signaling (pSmad2/3 luciferase reporter bioassay, HEK293): > 822 nM

## TNFR2-hFc (Etanercept) (Fc fusion)
[2]
  neutralization of GDF11 signaling (pSmad2/3 luciferase reporter bioassay, HEK293): > 8.2 nM
[1]
  neutralization of myostatin signaling (pSmad2/3 luciferase reporter bioassay, HEK293): > 8.2 nM
Activin A (human)
  neutralization of activin A signaling (pSmad2/3 luciferase reporter bioassay, HEK293): > 8.2 nM

## VGFR(½)-hFc (Aflibercept) (Fc fusion)
[2]
  neutralization of GDF11 signaling (pSmad2/3 luciferase reporter bioassay, HEK293): > 8.2 nM
[1]
  neutralization of myostatin signaling (pSmad2/3 luciferase reporter bioassay, HEK293): > 8.2 nM
